Measured values reported in US12344648B2.

Columns and labels:
[1] = target: IL-15 receptors on CD8+ T cells and NK cells of cynomolgus monkey whole blood (cynomolgus monkey)
[2] = target: IL-15 receptors on CD8+ T cells and NK cells of cynomolgus monkey whole blood (cynomolgus monkey); remark: listed apart in the source

Row | EC50 of STAT5 signaling (pSTAT5), CD8+ T cells, cynomolgus monkey whole blood [1] [ng/ml] | EC50 of STAT5 signaling (pSTAT5), NK cells, cynomolgus monkey whole blood [1] [ng/ml] | fold change of EC50 for pSTAT5 induction against native IL-15, CD8+ T cells, cynomolgus monkey whole blood [2] [fold] | fold change of EC50 for pSTAT5 induction against native IL-15, NK cells, cynomolgus monkey whole blood [2] [fold] | Substance
1 | 6.3 | 1.9 |  |  | native IL-15 (from UniProt P40933) (ligand)
2 | 1040 | 219 | 164 | 115 | IL-15_L26[AzK_PEG30] (ligand)
3 | 9.2 | 1.8 |  |  | IL-15_E54[AzK_PEG30] (ligand)
4 | 15.7 | 3.9 |  |  | IL-15_N78[AzK_PEG30] (ligand)
